33 molecules from patent US20210145976A1 (ARO BIOTHERAPEUTICS, published 2021) can be followed below.

For test [1], the target named is T1, recombinant biotinylated CD71 extracellular domain (Sino Biologics) with an N-terminal 6His tag (human, UniProt P02786 89-760, biotinylated (sites not given)).
T1 construct: extracellular domain; also called hCD71; huCD71
The test can be described thus: screening ELISA, ratio. On the technique in general: ELISA stands for enzyme-linked immunosorbent assay.

For test [2], the target named is T1, recombinant biotinylated CD71 …. Kind of test: screening ELISA.

T1 sequence (P02786 other isoform, or with tags, fused parts or gaps): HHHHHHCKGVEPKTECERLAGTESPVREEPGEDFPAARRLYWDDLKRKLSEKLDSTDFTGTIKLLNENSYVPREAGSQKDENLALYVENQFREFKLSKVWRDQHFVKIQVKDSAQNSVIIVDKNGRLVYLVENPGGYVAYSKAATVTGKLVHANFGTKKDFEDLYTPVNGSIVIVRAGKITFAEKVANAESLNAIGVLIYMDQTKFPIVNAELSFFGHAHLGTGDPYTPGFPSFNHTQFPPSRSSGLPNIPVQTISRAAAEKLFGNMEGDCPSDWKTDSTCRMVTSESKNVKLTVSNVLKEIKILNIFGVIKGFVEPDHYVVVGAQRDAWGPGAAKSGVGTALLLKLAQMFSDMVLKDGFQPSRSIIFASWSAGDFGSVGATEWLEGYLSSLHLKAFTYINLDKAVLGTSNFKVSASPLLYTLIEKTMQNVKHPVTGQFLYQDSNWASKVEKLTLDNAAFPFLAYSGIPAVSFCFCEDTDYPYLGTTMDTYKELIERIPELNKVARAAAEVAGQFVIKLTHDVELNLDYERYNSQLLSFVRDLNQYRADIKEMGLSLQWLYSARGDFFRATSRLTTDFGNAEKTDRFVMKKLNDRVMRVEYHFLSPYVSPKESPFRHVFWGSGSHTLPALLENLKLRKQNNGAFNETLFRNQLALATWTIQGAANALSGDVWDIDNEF

B1: SEQ ID NO 165 (designed binder)
chain: MLPARKNLVVSRVTEDSARLSWTAPDAAFDSFFIPYAEPSPTGEAIVLTVPGSERSYDLTGLKPGTEYSVLIHGVKGGHLSDPLSAISTT
notes: FN3 domain
B1: the “hCD71:HSA” value in test [1] was determined as 41. In test [2], the hCD71 worked out at 2.64e+06.

B2: SEQ ID NO 236 (designed binder)
chain: MLPAPKNLVVSRVTEDSARLSWTAPDAAFDSFWIEYYEELGSGEAIVLTVPGSERSYDLTGLKPGTEYRVYIYGVKGGYPSSPLSAIFTT
notes: FN3 domain
Regarding B2, the “hCD71:HSA” value in test [1] stood at 2300. Also, in test [2], the hCD71 came to 3.44e+06.

B3: SEQ ID NO 228 (designed binder)
chain: MLPAPKNLVVSRVTEDSARLSWTAPDAAFDSFEIYYVEWSEAGEAIVLTVPGSERSYDLTGLKPGTEYRVEIRGVKGGSWSSPLSAIFTT
notes: FN3 domain
B3: the “hCD71:HSA” value in test [1] came out at 1060. The hCD71 in test [2] amounted to 2.54e+06.

B4: SEQ ID NO 181 (designed binder)
chain: MLPAPKNLVVSHVTEDSARLSWTAPDAAFDSFPIAYAEPRPDGEAIVLTVPGSERSYDLTGLKPGTEYSVLIHGVKGGLLSSPLSAIFTT
notes: FN3 domain
As for B4, the “hCD71:HSA” value in test [1] came out at 491. In addition, the hCD71 in test [2] worked out at 2.95e+06.

B5: SEQ ID NO 195 (designed binder)
chain: MLPAPKNLVVSRVTEDSARLSWTAPDAAFDSFPIEYDEIPFWGEAIVLTVPGSERSYDLTGLKPGTEYRVWIHGVKGGNSSWPLSAIFTT
notes: FN3 domain
With B5, in test [1], the “hCD71:HSA” value was 28. The hCD71 in test [2] turned out to be 2.53e+06.

B6: SEQ ID NO 182 (designed binder)
chain: MLPAPKNLVVSRVTEDSARLSWTAPDAAFDSFFIGYLEPYPPGEAIVLTVPGSERSYDLTGLKPGTEYVVSIQGVKGGTPSQPLSAIFTT
notes: FN3 domain
As for B6, the “hCD71:HSA” value in test [1] was determined as 1060. Besides, in test [2], the hCD71 was 3.12e+06.

B7: SEQ ID NO 211 (designed binder)
chain: MLPAPKNLVVSRVTEDSARLSWTAPDAAFDSFWINYYEAQPDGEAIVLTVPGSERSYDLTGLKPGTEYDVEIAGVKGGTASLPLSAIFTT
notes: FN3 domain
On to B7, for which, in test [1], the “hCD71:HSA” value was 334. The hCD71 in test [2] stood at 1e+06.

B8: SEQ ID NO 215 (designed binder)
chain: MLPAPKNLVVSRVTEDSARLSWTAPDAAFDSFLIPYAETSPTGEAIVLTVPGSERSYDLTGLKPGTEYSVLIHGVKGGYPSSPLSAIFTT
notes: FN3 domain
As to B8, in test [1], the “hCD71:HSA” value came to 1210. Besides, the hCD71 in test [2] is 2.13e+06.

B9: SEQ ID NO 178 (designed binder)
chain: MLPAPKNLVVSRVTEDSARLSWTAPDAAFDSFDIAYAEPIPRGEAIVLTVPGSERSYDLTGLKPGTEYSVLIHGVKGGRRSVPLSAIFTT
notes: FN3 domain
Take B9: the “hCD71:HSA” value in test [1] was determined as 644. Also, the hCD71 in test [2] is 1.45e+06.

B10: SEQ ID NO 176 (designed binder)
chain: MLPAPKNLVVSRVTEDSARLSWTAPDAAFDSFPIAYAEPRPDGEAIVLTVPGSERSYDLTGLKPGTEYSVGIHGVKGGHDSSPLSAIFTT
notes: FN3 domain
Take B10: in test [1], the “hCD71:HSA” value was 129. For the same molecule, the hCD71 in test [2] was 1.34e+06.

B11: SEQ ID NO 202 (designed binder)
chain: MLPAPKNLVVSRVTEDSARLSWTAPDAAFDSFYIDYLELTYSGEAIVLTVPGSERSYDLTGLKPGTEYYVYIYGVKGGYPSSPLSAIFTT
notes: FN3 domain
As for B11, the “hCD71:HSA” value in test [1] stood at 1610. Besides, the hCD71 in test [2] came to 4.5e+06.

B12: SEQ ID NO 170 (designed binder)
chain: MLPAPKNLVVSRVTEDSARLSWTAPDAAFDSFFIGYPEYPATGEAIVLTVPGSERSYDLTGLKPGTEYFVDINGVKGGSLSYPLSAIFTT
notes: FN3 domain
Consider B12, for which the “hCD71:HSA” value in test [1] came to 58. Besides, in test [2], the hCD71 worked out at 982000.

B13: SEQ ID NO 198 (designed binder)
chain: MLPAPKNLVVSRVTEDSARLSWTAPDAAFDSFLIAYNEDRKFGEAIVLTVPGSERSYDLTGLKPGTEYDVWIEGVKGGSLSFPLSAIFTT
notes: FN3 domain
Regarding B13, in test [1], the “hCD71:HSA” value was found to be 1130. The hCD71 in test [2] worked out at 3.44e+06.

B14: SEQ ID NO 179 (designed binder)
chain: MLPAPKNLVVSRVTEDSARLSWTAPDAAFDSFYIAYAEPRPDGEAIVLTVPGSERSYDLTGLKPGTEYPVPIPGVKGGPGSSPLSAIFTT
notes: FN3 domain
For B14, the “hCD71:HSA” value in test [1] worked out at 36. The hCD71 in test [2] was 2.68e+06.

B15: SEQ ID NO 216 (designed binder)
chain: MLPAPKNLVVSRVTEDSARLSWTAPDAAFDSFPIAYAEPTPSGEAIVLTVPGSERSYDLTGLKPGTEYSVLIHGVKGGGLSLPLSAIFTT
notes: FN3 domain
Regarding B15, the “hCD71:HSA” value in test [1] came out at 101. In test [2], the hCD71 came out at 2.19e+06.

B16: SEQ ID NO 223 (designed binder)
chain: MLPAPKNLVVSRVTEDSARLSWTAPDAAFDSFTIWYAEALGDGEAIVLTVPGSERSYDLTGLKPGTEYFVDIPGVKGGTRSSPLSAISTT
notes: FN3 domain
For B16, in test [1], the “hCD71:HSA” value came out at 32. The hCD71 in test [2] is 1.67e+06.

B17: SEQ ID NO 177 (designed binder)
chain: MLPAPKNLVVSRVTEDSARLSWTAPDAAFDSFFIGYLEPQPPGEAIVLTVPGSERSYDLTGLKPGTEYNVTIQGVKGGRASGPLSAIFTT
notes: FN3 domain
For B17, in test [1], the “hCD71:HSA” value amounted to 1060. The hCD71 in test [2] is 2.61e+06.

B18: SEQ ID NO 188 (designed binder)
chain: MLPAPKNLVVSRVTEDSARLSWTAPDAAFDSFLIPYAETSPSGEAIVLTVPGSERSYDLTGLKPGTEYSVLIHGVKGGKLSLPLSAIFTT
notes: FN3 domain
As to B18, the “hCD71:HSA” value in test [1] is 797. In addition, the hCD71 in test [2] amounted to 2.67e+06.

B19: SEQ ID NO 183 (designed binder)
chain: MLPAPKNLVVSRVTEDSARLSWTAPDAAFDSFLIPYAETSPSGEAIVLTVPGSERSYDLTGLKPGTEYSVLIHGVKGGRPSNPLVAAFTT
notes: FN3 domain
In the case of B19, the “hCD71:HSA” value in test [1] came to 161. For the same molecule, the hCD71 in test [2] was 1.72e+06.

B20: SEQ ID NO 185 (designed binder)
chain: MLPAPKNLVVSRVTEDSARLSWTAPDAAFDSFEIDYDELAIYGEAIVLTVPGSERSYDLTGLKPGTEYGVMIIGVKGGLPSDPLSAIFTT
notes: FN3 domain
As for B20, the “hCD71:HSA” value in test [1] is 182. Further, the hCD71 in test [2] came to 1.81e+06.

B21: SEQ ID NO 219 (designed binder)
chain: MLPAPKNLVVSRVTEDSARLSWTAPDAAFDSFHIDYLELTYAGEAIVLTVPGSERSYDLTGLKPGTEYYVTIYGVKGGYPSSPLSAIFTT
notes: FN3 domain
As for B21, the “hCD71:HSA” value in test [1] stood at 1270. In test [2], the hCD71 was 3.31e+06.

B22: SEQ ID NO 175 (designed binder)
chain: MLPAPKNLVVSRVTEDSARLSWTAPDAAFDSFFIGYLEPQPPGEAIVLTVPGSERSYDLTGLKPGTEYSVVIQGVKGGFPSDPLSAIFTT
notes: FN3 domain
As to B22, the “hCD71:HSA” value in test [1] worked out at 2220. The hCD71 in test [2] came to 3.55e+06.

B23: SEQ ID NO 166 (designed binder)
chain: MLPAPKNLVVSRVTEDSARLSWTAPDAAFDSFTILYNEIQNVGEAIVLTVPGSERSYDLTGLKPGTEYDVWIEGVKGGELSWPLSAIFTT
notes: FN3 domain
Turning to B23, the “hCD71:HSA” value in test [1] came out at 480. Further, the hCD71 in test [2] was 2.42e+06.

B24: SEQ ID NO 187 (designed binder)
chain: MLPAPKNLVVSRVTEDSARLSWTAPDAAFDSFVIEYFEFVGYGEAIVLTVPGSERSYDLTGLKPGTEYSVGIYGVKGGKLSPPLSAIFTT
notes: FN3 domain
Regarding B24, the “hCD71:HSA” value in test [1] came to 422. For the same molecule, the hCD71 in test [2] came out at 3.06e+06.

B25: SEQ ID NO 192 (designed binder)
chain: MLPAPKNLVVSRVTEDSARLSWTALDAAFDSFFIGYLEPQPPGEAIVLTVPGSERSYDLTGLKPGTEYNVTIQGVKGGFPSMPLSAIFTT
notes: FN3 domain
With B25, the “hCD71:HSA” value in test [1] turned out to be 650. Further, the hCD71 in test [2] worked out at 2.67e+06.

B26: SEQ ID NO 193 (designed binder)
chain: MLPAPKNLVVSRVTEDSARLSWTAPDAAFDSFTIWYAEAVGNGEAIVLTVPGSERSYDLTGLKPGTEYWVDIWGVKGGEFSSPLSAIFTT
notes: FN3 domain
With B26, the “hCD71:HSA” value in test [1] came out at 1550. Also, the hCD71 in test [2] was 3.87e+06.

B27: SEQ ID NO 200 (designed binder)
chain: MLPAPKNLVVSRVTEDSARLSWTAPDAAFDSFYIEYYEWMHTGEAIVLTVPGSERSYDLTGLKPGTEYSVYIYGVKGGYPSSPLSAIFTT
notes: FN3 domain
For B27, the “hCD71:HSA” value in test [1] is 1730. Further, the hCD71 in test [2] stood at 3.63e+06.

B28: SEQ ID NO 169 (designed binder)
chain: MLPAPKNLVVSRVTEDSARLSWTAPDAAFDSFFIGYLEPQPPGEAIVLTVPGSERSYDLTGLKPGTEYNVTIQGVKGGFPSVPLSAIFTT
notes: FN3 domain
Turning to B28, the “hCD71:HSA” value in test [1] came out at 1060. The hCD71 in test [2] came to 2.85e+06.

B29: SEQ ID NO 167 (designed binder)
chain: MLPAPKNLVVSRVTEDSARLSWTAPDAAFDSFFIGYLEPQPPGEAIVLTVPGSERSYDLTGLKPGTEYNVTIQGVKGGTPSEPLSAIFTT
notes: FN3 domain
As to B29, the “hCD71:HSA” value in test [1] was found to be 727. Besides, the hCD71 in test [2] came out at 2.62e+06.

B30: SEQ ID NO 180 (designed binder)
chain: MLPAPKNLVVSRVTEDSARLSWTAPDAAFDSFEISYYEMRGYGEAIVLTVPGSERSYDLTGLKPGTEYSVLIHGVEGGDYSSPLSAISTT
notes: FN3 domain
For the molecule B30, the “hCD71:HSA” value in test [1] came out at 50. Moreover, the hCD71 in test [2] was 1.68e+06.

B31: SEQ ID NO 205 (designed binder)
chain: MLPAPKNLVVSRVTEDSARLSWTAPDAAFDSFDIDYDEPAWNGEAIVLTVPGSERSYDLTGLKPGTEYRVFIYGVKGGNTSWPLSAIFTT
notes: FN3 domain
Turning to B31, in test [1], the “hCD71:HSA” value was 130. Further, in test [2], the hCD71 turned out to be 434000.

B32: SEQ ID NO 207 (designed binder)
chain: MLPAPKNLVVSRVTEDSARLSWTAPDAAFDSFFIGYLEPQPPGEAIVLTVPGSERSYDLTGLKPGTEYNVTIQGVKGGTPSEPLSAISTT
notes: FN3 domain
In the case of B32, in test [1], the “hCD71:HSA” value stood at 62. The hCD71 in test [2] was determined as 1.6e+06.

B33: SEQ ID NO 210 (designed binder)
chain: MLPAPKNLVVSRVTEDSARLSWTAPDAAFDSFSIVYGERFVNGEAIVLTVPGSERSYDLTGLKPGTEYHVYIDGVKGGDLSWPLSAIFTT
notes: FN3 domain
Regarding B33, the “hCD71:HSA” value in test [1] came out at 514. For the same molecule, the hCD71 in test [2] was 1.16e+06.
